Reference: PMC10586780 (Biochemical Journal, 2023)
Numbering of substitutions follows the chain as printed. Numbers in names are those of the source. Where “and” joins values, the source holds several entries; their conditions need not be identical. Equal entries are not always repeated.

B1: human liver phosphofructokinase-1 (PFKL), wild type, recombinant (enzyme)
chain: MAAVDLEKLRASGAGKAIGVLTSGGDAQGMNAAVRAVTRMGIYVGAKVFLIYEGYEGLVEGGENIKQANWLSVSNIIQLGGTIIGSARCKAFTTREGRRAAAYNLVQHGITNLCVIGGDGSLTGANIFRSEWGSLLEELVAEGKISETTARTYSHLNIAGLVGSIDNDFCGTDMTIGTDSALHRIMEVIDAITTTAQSHQRTFVLEVMGRHCGYLALVSALASGADWLFIPEAPPEDGWENFMCERLGETRSRGSRLNIIIIAEGAIDRNGKPISSSYVKDLVVQRLGFDTRVTVLGHVQRGGTPSAFDRILSSKMGMEAVMALLEATPDTPACVVTLSGNQSVRLPLMECVQMTKEVQKAMDDKRFDEATQLRGGSFENNWNIYKLLAHQKPPKEKSNFSLAILNVGAPAAGMNAAVRSAVRTGISHGHTVYVVHDGFEGLAKGQVQEVGWHDVAGWLGRGGSMLGTKRTLPKGQLESIVENIRIYGIHALLVVGGFEAYEGVLQLVEARGRYEELCIVMCVIPATISNNVPGTDFSLGSDTAVNAAMESCDRIKQSASGTKRRVFIVETMGGYCGYLATVTGIAVGADAAYVFEDPFNIHDLKVNVEHMTEKMKTDIQRGLVLRNEKCHDYYTTEFLYNLYSSEGKGVFDCRTNVLGHLQQGGAPTPFDRNYGTKLGVKAMLWLSEKLREVYRKGRVFANAPDSACVIGLKKKAVAFSPVTELKKDTDFEHRMPREQWWLSLRLMLKMLAQYRISMAAYVSGELEHVTRRTLSMDKGF
B2: human liver phosphofructokinase-1 with the cancer-associated mutation D553N (PFKL-D553N), recombinant (enzyme)
chain: B1 chain with D553N
B3: human platelet phosphofructokinase-1 with the cancer-associated mutation D564N (PFKP-D564N), recombinant (enzyme, UniProt Q01813-1 1-784, looked up)
chain: MDADDSRAPKGSLRKFLEHLSGAGKAIGVLTSGGDAQGMNAAVRAVVRMGIYVGAKVYFIYEGYQGMVDGGSNIAEADWESVSSILQVGGTIIGSARCQAFRTREGRLKAACNLLQRGITNLCVIGGDGSLTGANLFRKEWSGLLEELARNGQIDKEAVQKYAYLNVVGMVGSIDNDFCGTDMTIGTDSALHRIIEVVDAIMTTAQSHQRTFVLEVMGRHCGYLALVSALACGADWVFLPESPPEEGWEEQMCVKLSENRARKKRLNIIIVAEGAIDTQNKPITSEKIKELVVTQLGYDTRVTILGHVQRGGTPSAFDRILASRMGVEAVIALLEATPDTPACVVSLNGNHAVRLPLMECVQMTQDVQKAMDERRFQDAVRLRGRSFAGNLNTYKRLAIKLPDDQIPKTNCNVAVINVGAPAAGMNAAVRSAVRVGIADGHRMLAIYDGFDGFAKGQIKEIGWTDVGGWTGQGGSILGTKRVLPGKYLEEIATQMRTHSINALLIIGGFEAYLGLLELSAAREKHEEFCVPMVMVPATVSNNVPGSDFSIGADTALNTITDTCNRIKQSASGTKRRVFIIETMGGYCGYLANMGGLAAGADAAYIFEEPFDIRDLQSNVEHLTEKMKTTIQRGLVLRNESCSENYTTDFIYQLYSEEGKGVFDCRKNVLGHMQQGGAPSPFDRNFGTKISARAMEWITAKLKEARGRGKKFTTDDSICVLGISKRNVIFQPVAELKKQTDFEHRIPKEQWWLKLRPLMKILAKYKASYDVSDSGQLEHVQPWSV

Target: the molecule itself
Assay: native gel or EMSA

| Protein | stoichiometry N |
| --- | --- |
| B1 | 4 and > 4 |
| B2 | 4 |
| B3 | 4 |
